For 14 molecules, KD and Kd results are on record in article PMC4225485, “The PHD1 finger of KDM5B recognizes unmodified H3K4 during the demethylation of histone H3K4me2/3 by KDM5B” (Protein & Cell, 2014).

Broadly, the Kd is the equilibrium constant for the complex coming apart. High values mean lower affinity, low ones higher affinity.

For one test, the target named is T1, PHD1KDM5B (306–360 aa) (Homo sapiens, UniProt Q9UGL1).
T1 construct: PHDKDM5B (residues 306–360 aa); GST (N, cleaved yes); made in house
T1 sequence (Q9UGL1 306-360): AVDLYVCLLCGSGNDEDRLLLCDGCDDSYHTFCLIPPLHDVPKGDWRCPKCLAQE
Briefly: ITC binding of H3 peptides to PHD1KDM5B. The text has this:
The details of the preparation, purification, crystallization and determination of the PHDKDM5B (residues 306–360 aa) X-ray structure were previously described (Guo et al., [2011]). The modified pGEX-6p-1 vectors expressed proteins with the N-terminal GST tag, which is removable by cleavage with a 3C protease, enabling the use of non-tagged proteins in our studies. Only the X-ray structure of free PHD1KDM5B was obtained.
To study the binding affinities in vitro or to construct different NMR samples of the complex, H3K4 peptides without modifications (with the ARTKQTARKS sequence or […] sequence) or with some modifications (H3R2me1, R2 monomethylation; H3R2me2s, R2 symmetric dimethylation; H3R2me2a, R2 asymmetric dimethylation; H3K4me1/2/3, K4 mono-, di-, and tri-methylation; H3K9me1/2/3, K9 mono-, di- and tri-methylation; H3 peptide A1G, R2A, T3V, K4A, Q5E, T6V mutants without any modification) were purchased from GL Biochem Ltd. (Shanghai, China), and their purity was confirmed by HPLC and mass spectrometry.
To investigate whether the PHD1KDM5B finger and its mutants interact with unmodified or methylated H3K4 or H3K4mutants, the binding affinities of PHD1KDM5B or its mutants to H3 peptides were studied. An ITC-200 microcalorimeter (GE Healthcare) was used with a buffer containing 20 mmol/L Tris, 150 mmol/L NaCl, and 1% Triton X-100, pH 7.5 at 25°C. The reference titration of small molecules in the buffer was subtracted from the experimental data, and the data were fitted using the Origin 7.0 (OriginLab Corporation) software.

Test [1] concerns the target PHD1 finger of KDM5B (residues 306-360) (UniProt Q9UGL1). Briefly: ITC; ITC-200, 20 mmol/L Tris, 150 mmol/L NaCl, 1% Triton X-100, pH 7.5, 25°C.
In test [2] the target is H3K4 (1-10aa) K4A (Homo sapiens). Briefly: ITC. As to conditions: domain or fragment; chains chain.
Test [3] deals with H3K4 (1-10aa) Q5E (Homo sapiens). In words: ITC. To be noted: domain or fragment; chains chain.
Test [4] addresses T2, PHD1 finger of KDM5B (residues 306-360) (UniProt Q9UGL1 306-360).
T2 construct: 15N- or 13C/15N-labelled (M9 medium) for the NMR experiments; GST removed with 3C protease; also called PHD1_(KDM5B); PHD_(KDM5B); source: recombinant from modified pGEX-6p-1, purified; preparation described in Guo et al., 2011; not shown: GST, N-terminal, cleaved
T2 sequence (looked up): T1 sequence (Q9UGL1 306-360)
In words: ITC; ITC-200, 20 mmol/L Tris, 150 mmol/L NaCl, 1% Triton X-100, pH 7.5, 25°C. As to conditions: both partners purified. A general note: In ITC the heat of successive injections is recorded.

The mark [5] stands for this setting: ITC-200, 20 mmol/L Tris, 150 mmol/L NaCl, 1% Triton X-100, pH 7.5, 25°C, H3 peptides residues 1–10, means (± s.d.) of at least three experiments.
Setting [6] is: Table S1, pH 7.5, 25°C, H3 peptides (1-10aa), N.D. means non-detectable.

On to “H3K4 (1-10aa) K4E: unmodified H3 peptide (1-10aa) K4E mutant (ARTEQTARKS; UniProt P68431 2-11, looked up, variant K4E)”, for which the KD entry with PHD1KDM5B (306–360 aa) (setting [5]) is on record as “non-detectable”.
On the same count and under the same terms, the result for “H3K4 (1-10aa) R2E: unmodified H3 peptide (1-10aa) R2E mutant (AETKQTARKS; UniProt P68431 2-11, looked up, variant R2E)” reads “too small to detect”.
In test [1], “H3 peptide T3V mutant (from UniProt P68431 2-11)” had a dissociation constant (Kd) of 57.1 µM. This counts as double-digit micromolar.
Still for that read-out and setting: to “H3 peptide R2A mutant (from UniProt P68431 2-11)” belongs 370 µM.
`CC(C)[C@H](NC(=O)[C@H](CCCNC(=N)N)NC(=O)[C@H](C)N)C(=O)N[C@@H](CCCCN)C(=O)N[C@@H](CCC(N)=O)C(=O)N[C@H](C(=O)N[C@@H](C)C(=O)N[C@@H](CCCNC(=N)N)C(=O)N[C@@H](CCCCN)C(=O)N[C@@H](CO)C(=O)O)[C@@H](C)O` [H3K4 (1-10aa) T3V] yielded a Kd at PHD1KDM5B (306–360 aa) (setting [5]) of 57.1 ± 2.2 µM.
As to `C[C@H](N)C(=O)N[C@@H](CCCNC(=N)N)C(=O)N[C@H](C(=O)N[C@@H](CCCCN)C(=O)N[C@@H](CCC(=O)O)C(=O)N[C@H](C(=O)N[C@@H](C)C(=O)N[C@@H](CCCNC(=N)N)C(=O)N[C@@H](CCCCN)C(=O)N[C@@H](CO)C(=O)O)[C@@H](C)O)[C@@H](C)O` [H3K4 (1-10aa) Q5E], the affinity at PHD1KDM5B (306–360 aa) (setting [6]), expressed as Kd, was 21.4 ± 1.7 µM.
Molecule `C[C@H](N)C(=O)N[C@@H](C)C(=O)N[C@H](C(=O)N[C@@H](CCCCN)C(=O)N[C@@H](CCC(N)=O)C(=O)N[C@H](C(=O)N[C@@H](C)C(=O)N[C@@H](CCCNC(=N)N)C(=O)N[C@@H](CCCCN)C(=O)N[C@@H](CO)C(=O)O)[C@@H](C)O)[C@@H](C)O` [H3K4 (1-10aa) R2A] gave a Kd at PHD1KDM5B (306–360 aa) (setting [5]) of 370 ± 52.1 µM.
The same measure, in the same setting: the result for `CC(C)[C@H](NC(=O)[C@H](CCC(N)=O)NC(=O)[C@H](CCCCN)NC(=O)[C@@H](NC(=O)[C@H](CCCNC(=N)N)NC(=O)[C@H](C)N)[C@@H](C)O)C(=O)N[C@@H](C)C(=O)N[C@@H](CCCNC(=N)N)C(=O)N[C@@H](CCCCN)C(=O)N[C@@H](CO)C(=O)O` [H3K4 (1-10aa) T6V] reads 61.3 ± 1.6 µM; that for `C[C@H](NC(=O)[C@@H](NC(=O)[C@H](CCC(N)=O)NC(=O)[C@H](CCCCN)NC(=O)[C@@H](NC(=O)[C@H](CCCNC(=N)N)NC(=O)CN)[C@@H](C)O)[C@@H](C)O)C(=O)N[C@@H](CCCNC(=N)N)C(=O)N[C@@H](CCCCN)C(=O)N[C@@H](CO)C(=O)O` [H3K4 (1-10aa) A1G], 305 ± 11.7 µM.
Consider `C[C@H](N)C(=O)N[C@@H](CCCNC(=N)N)C(=O)N[C@H](C(=O)N[C@@H](C)C(=O)N[C@@H](CCC(N)=O)C(=O)N[C@H](C(=O)N[C@@H](C)C(=O)N[C@@H](CCCNC(=N)N)C(=O)N[C@@H](CCCCN)C(=O)N[C@@H](CO)C(=O)O)[C@@H](C)O)[C@@H](C)O` [H3K4 (1-10aa) K4A], for which the affinity at PHD1KDM5B (306–360 aa) (setting [6]), expressed as Kd, was 15.9 ± 1.2 µM.
Consider “H3 peptide A1G mutant (from UniProt P68431 2-11)”, for which the dissociation constant Kd in test [1] is 305 µM.
The same measure, in the same setting: the result for “H3 peptide T6V mutant (from UniProt P68431 2-11)” reads 61.3 µM.

B1: PHD1 finger of KDM5B (residues 306-360), Q9UGL1 306-360 (protein)
chain: T1 sequence (Q9UGL1 306-360)
As to B1, the results for the equilibrium dissociation constant (Kd) in test [2] and in test [3] were 15.9 µM and 21.4 µM, respectively.

B2: tri-methylated H3K4me3 peptide (residues 1-10) (peptide)
peptide: ARTKQTARKS
modifications: trimethyl-lysine at K4
notes: histone H3 N-terminal tail, residues 1-10; source: synthetic peptide, bought: GL Biochem Ltd. (Shanghai, China)
Molecule B2 displayed a Kd in test [4] of 104 µM.
